Measured values published in patent US20160053248A1, “SYSTEMS AND METHODS FOR EVOLVING ENZYMES WITH DESIRED ACTIVITIES” (Potomac Affinity Proteins, LLC, priority 2009, published 2016).
Primed or numbered codes have the meaning given here. No end group written: not given here. *: point of attachment. Dabcyl′ = CN(C)c1ccc(/N=N/c2ccc(C(=O)*)cc2)cc1

Columns and labels:
SBT189 = experiment: Transient state kinetics with FRET peptide: product release and product binding; design: species or system Bacillus amyloliquefaciens; details: not influenced by azide concentration
Method: (§1) The deacylation reaction and product release: A self-quenched FRET peptide that becomes highly fluorescent when cleaved (Dabcyl-EEDKLFRAL-SATE(EDANS)G (SEQ ID NO:16)) was synthesized. This peptide has been used to determine transient state kinetic parameters. Deacylation of SBT189 in 50 mM azide is faster (3.3 s^−1) than the wild type counterpart (1.8 s^−1). The rate of product (Dabcyl-EEDKLFRAL; (SEQ ID NO:17)) release is 6 s^−1 and Kp is 1.2 μM. Product binding is not influenced by azide concentration. Strong product binding of subtilisin-phage to GA-PCOGNATE- is used for the collection of active mutants in the release step in phage selection (see FIG. 5). Binding is constitutive at this step, however, and is not used to increase selectivity.

GA-PLFRAL-S-GB = experiment: Acylation kinetics (GB release) of pre-formed enzyme-substrate complex monitored by fluorescence; type: biochemical
From the text: In panels A-C, RSUB1(AF350) represents subtilisin SBT189 conjugated to AF350).
The acylation reaction: Step 2 describes conversion of the ternary complex into an acyl-enzyme with the concomitant release to the C-terminal portion of the substrate. With substrates used in phage display, the GB domain is released concomitantly with the acylation step. If a fluorescent reporter group is attached to subtilisin, a decrease in energy transfer enables time-dependent quantitation of acylation.

[1] = tested on: Dabcyl-EEDKLFRAL-SATE(EDANS)G; experiment: Transient state kinetics with self-quenched FRET peptide: deacylation; type: biochemical; details: SBT189 in 50 mM azide
Method: as §1

GA-PFRAL-S-GB = experiment: Cleavage kinetics of GA-PFRAL-S-GB by position 166 mutant versus parent enzyme; type: biochemical; details: no azide
Method: Mutants were selected that cleave the substrate GA-PFRAL-S-GB in response to azide. Phage were bound to the GA-PFRAL-S-GB substrate and collected on IgG-Sepharose. The ability to hydrolyze the fusion protein is selected by washing the beads in 1 mM azide for 5 minutes in the release step. Phage are therefore released or retained from the resin based on the kinetics with which they cleave GA-PFRAL from GB under the triggering condition. Released phage were collected on HSA-Sepharose, acid eluted, neutralized, used to infect fresh E. coli cells, plated out, and colonies counted. Three cycles of selection were carried out. After three rounds of selection, the consensus amino acid at position 166 was threonine. The kinetic properties of the T166 mutant were compared to parent enzyme (SBT189), which has a serine at 166. The T166 mutant hydrolyzed GA-PFRAL-S-GB 1.5-times faster than SBT 189 in 1 mM azide. […] Thus the ratio of triggered rate to intrinsic rate was increased 5-fold by optimizing a single amino acid position in the S1 subsite. This ratio is a quantitative measure of how tightly the enzyme is regulated by the trigger.

GB-LFRAL-SA-GFP = experiment: Digestion of GB-LFRAL-SA-GFP fusion protein in E. coli extract (protein gel, MALDI-MS); type: biochemical; details: 20 μM fusion protein, 50 nM SBT189, 10 mM azide, 0.1M KPi, pH 7.2, 22° C.
Method: In order to evaluate sequence specificity of SBT189 for the cognate sequence identified by phage display, a gene was constructed to direct the synthesis of a fusion of the 56 amino acid B domain (GB) of streptococcal Protein G to a linker comprising the cognate sequence LFRAL-SA (SEQ ID NO:5) followed by GFP. Accordingly, the protein is denoted “GB-LFRAL-SA-GFP”.
Timepoints were collected as indicated. The fusion protein (20 μM) was mixed with 50 nM of SBT189 in 10 mM azide, 0.1M KPi, pH 7.2, at 22° C.

subtilisin = details: competitive inhibitor of active subtilisin; cited from earlier work

Molecule: Dabcyl-EEDKLFRAL ({Dabcyl′}-EEDKLFRAL)
- rate of product release (SBT189): 6 s⁻¹

B1: SBT189: D32A mutant of subtilisin, azide-triggered protease (SEQ ID NO: 27) (protein)
chain: AKCVSYGVAQIKAPALHSQGYTGSNVKVAVLASGIDSSHPDLNVAGGASFVPSETNPFQDNNSHGTHVAGTVLAVAPSASLYAVKVLGADGSGQASWIINGIEWAIANNMDVINMSLGSPSGSAALKAAVDKAVASGVVVVAAAGNSGTSGSSSTVSYPAKYPSVIAVGAVDSSNQRAPFSSVGPELDVMAPGVSICSTLPGGKYGALSGTSMASPHVAGAAALILSKHPNWTNTQVRSSLENTATKLGDSFYYGKGLINVEAAAQ
modifications: Subtilisin related sequence
- rate of GB release (GA-PLFRAL-S-GB; 0.1M KPO4, pH 7.2, no azide, 22° C.): 0.0019 s⁻¹
- rate of GB release (GA-PLFRAL-S-GB; saturating azide): 6.4 s⁻¹
- azide dependent rate enhancement (GA-PLFRAL-S-GB; saturating azide versus no azide): about 3300 fold
- deacylation rate [1]: 3.3 s⁻¹
- cleavage rate in the absence of azide (GA-PFRAL-S-GB): 0.12 min⁻¹
- processing of the fusion protein (GB-LFRAL-SA-GFP): correctly and specifically processed

B2: 77 amino acid prodomain: 77 amino acid subtilisin prodomain (SEQ ID NO: 25) (protein, listed as Bacillus amyloliquefaciens)
chain: AGKSNGEKKYIVGFKQTMSTMSAAKKKDVISEKGGKVQKQFKYVDAASATLNEKAVKELKKDPSVAYVEEDHVAHAY
- Ki (subtilisin): 540 nM
